According to patent publication US20220267400:

Assays:
[1] = target: T1, Construct A (mIL2- 2x(SG4) - MMPcs1 - 2x(G4S) - IL2Ralpha - 6His)
T1 chain: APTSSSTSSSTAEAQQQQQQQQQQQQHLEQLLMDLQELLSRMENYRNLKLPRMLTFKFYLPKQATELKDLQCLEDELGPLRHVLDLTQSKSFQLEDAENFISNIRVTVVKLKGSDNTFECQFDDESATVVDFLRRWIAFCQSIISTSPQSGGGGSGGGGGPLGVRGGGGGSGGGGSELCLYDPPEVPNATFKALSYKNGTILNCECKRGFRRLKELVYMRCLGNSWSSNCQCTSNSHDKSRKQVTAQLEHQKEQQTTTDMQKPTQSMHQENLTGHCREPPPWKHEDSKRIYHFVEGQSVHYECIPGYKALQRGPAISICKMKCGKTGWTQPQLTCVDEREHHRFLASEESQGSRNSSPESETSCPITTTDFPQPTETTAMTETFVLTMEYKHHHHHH

[2] = target: T2, Construct B (m IL2-2x(SG4) - MMPcs1 - 2x (G4S) - IL2Ralpha - mIgG1 Fc)
T2 chain: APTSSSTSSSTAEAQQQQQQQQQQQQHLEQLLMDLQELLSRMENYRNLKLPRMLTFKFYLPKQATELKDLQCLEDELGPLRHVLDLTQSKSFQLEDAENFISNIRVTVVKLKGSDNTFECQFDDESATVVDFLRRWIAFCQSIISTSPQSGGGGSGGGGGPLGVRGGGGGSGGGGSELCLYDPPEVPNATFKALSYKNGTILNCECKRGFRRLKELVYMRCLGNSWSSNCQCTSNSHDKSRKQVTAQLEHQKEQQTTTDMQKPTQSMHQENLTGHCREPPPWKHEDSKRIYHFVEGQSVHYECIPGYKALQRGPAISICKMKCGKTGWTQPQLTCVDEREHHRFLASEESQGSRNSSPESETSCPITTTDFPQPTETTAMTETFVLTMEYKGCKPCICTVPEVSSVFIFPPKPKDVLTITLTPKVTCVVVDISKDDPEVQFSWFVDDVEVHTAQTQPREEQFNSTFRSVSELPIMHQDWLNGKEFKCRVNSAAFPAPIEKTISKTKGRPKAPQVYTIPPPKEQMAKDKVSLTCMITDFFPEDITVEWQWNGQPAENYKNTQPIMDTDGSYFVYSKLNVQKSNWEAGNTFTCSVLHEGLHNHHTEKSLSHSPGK

[3] = target: Construct E (Hu IL2(C125S)- 2x(SG4) - MMPcs1 - 2x(G4S) - IL2Ralpha - hu IgG1 Fc - 6xHIS)
Chain of Construct E (Hu IL2(C125S)- 2x(SG4) - MMPcs1 - 2x(G4S) - IL2Ralpha - hu IgG1 Fc - 6xHIS) (chain, as listed by the source C125S): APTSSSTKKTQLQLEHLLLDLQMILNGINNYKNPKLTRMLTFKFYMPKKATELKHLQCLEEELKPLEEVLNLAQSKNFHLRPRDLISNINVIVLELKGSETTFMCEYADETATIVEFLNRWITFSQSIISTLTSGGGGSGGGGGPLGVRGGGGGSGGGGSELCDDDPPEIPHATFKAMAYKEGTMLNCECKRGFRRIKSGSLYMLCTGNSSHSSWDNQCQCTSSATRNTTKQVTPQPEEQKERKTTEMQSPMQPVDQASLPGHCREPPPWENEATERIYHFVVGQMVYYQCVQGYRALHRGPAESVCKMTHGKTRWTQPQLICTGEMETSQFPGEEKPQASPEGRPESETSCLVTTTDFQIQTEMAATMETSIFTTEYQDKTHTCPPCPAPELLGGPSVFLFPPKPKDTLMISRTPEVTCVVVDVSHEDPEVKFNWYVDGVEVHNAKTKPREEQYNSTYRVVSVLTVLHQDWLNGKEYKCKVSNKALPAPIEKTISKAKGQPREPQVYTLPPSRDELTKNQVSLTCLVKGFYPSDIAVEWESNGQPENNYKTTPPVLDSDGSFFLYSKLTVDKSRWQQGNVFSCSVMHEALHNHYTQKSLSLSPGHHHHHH

B1: Recombinant MMP9 (R&D Systems), activated with p-aminophenylmercuric acetate (protein)
chain: FQTFKGLKWDHHNITYWIQNYSEDLPRDMIDDAFARAFAVWGEVAPLTFTRVYGPEADIVIQFGVAEHGDGYPFDGKDGLLAHAFPPGAGVQGDAHFDDDELWSLGKGVVIPTYYGNSNGAPCHFPFTFEGRSYSACTTDGRNDGTPWCSTTADYDKDGKFGFCPSERLYTEHGNGEGKPCVFPFIFEGRSYSACTTKGRSDGYRWCATTANYDQDKLYGFCPTRVDATVVGGNSAGELCVFPFVFLGKQYSSCTSDGRRDGRLWCATTSNFDTDKKWGFCPDQGYSLFLVAAHEFGHALGLDHSSVPEALMYPLYSYLEGFPLNKDDIDGIQYLYGRGSKPDPRPPATTTTEPQPTAPPTMCPTIPPTAYPTVGPTVGPTGAPSPGPTSSPSPGPTGAPSPGPTAPPTAGSSEASTESLSPADNPCNVDVFDAIAEIQGALHFFKDGWYWKFLNHRGSPLQGPFLTARTWPALPATLDSAFEDPQTKRVFFFSGRQMWVYTGKTVLGPRSLDKLGLGPEVTHVSGLLPRRLGKALLFSKGRVWRFDLKSQKVDPQSVIRVDKEFSGVPWNSHDIFQYQDKAYFCHGKFFWRVSFQNEVNKVDHEVNQVDDVGYVTYDLLQCP
**Q.** Which results are given for B1?
**A.** cleavage of the fusion protein, SDS-PAGE and Western blot [1]: essentially complete cleavage of the fusion proteins by MMP9 protease was seen after overnight incubation; cleavage of the fusion protein, Western blot [1]: Cleavage product was detectable at 1 hour, and the full-length cytokine prodrug was substantially undetectable at the overnight +MMP time point; cleavage of the fusion protein, SDS-PAGE and Western blot [2]: essentially complete cleavage of the fusion proteins by MMP9 protease was seen after overnight incubation; cleavage of the fusion protein, Western blot [2]: Cleavage product was detectable at 1 hour, and the full-length cytokine prodrug gave only a faint band at the 20 hour +MMP time point; cleavage of the fusion protein, SDS-PAGE and Western blot [3]: essentially complete cleavage of the fusion proteins by MMP9 protease was seen after overnight incubation; cleavage of the fusion protein, Western blot [3]: Cleavage product was detectable at 1 hour, and the full-length cytokine prodrug gave essentially no band at the 22 hour +MMP time point
